Blank lines part the entries; values can stand above or below the binder they belong to. Primed or numbered codes have the meaning given here. Where no end group is shown, it is not given here. [ ]: non-standard residue; d: D form. Ala(benzothiazol-2-yl)′ = not defined here; Phe(2-Cl) = N[C@@H](Cc1ccccc1Cl)C(=O)O; 1Nal = N[C@@H](Cc1cccc2ccccc12)C(=O)O; 2Nal = N[C@@H](Cc1ccc2ccccc2c1)C(=O)O; hPhe = N[C@@H](CCc1ccccc1)C(=O)O
Biological target: T1, human DCN1 (residues 58–259), N-terminal His6 tag (human, UniProt Q96GG9 58-259)
T1 construct: DCN1 (defective in cullin neddylation 1), human, residues 58-259, cloned into pDEST17; residues 60-251 are visible in PDB 5UFI; also called defective in cullin neddylation 1; source: Rosetta2 cells, purified (Ni-NTA, Superdex 75); not shown: His6, N-terminal, kept
Experiment: fluorescence polarisation; competitive: peptide added to pre-incubated DCN1 (50 nM) and FAM-labelled small-molecule probe 46 (5 nM); 100 mM phosphate buffer pH 6.5, 0.02% Tween-20, 2% DMSO; room temperature, 30 min; Ki calculated from IC50
Settings: both partners purified

T1 sequence (Q96GG9 58-259): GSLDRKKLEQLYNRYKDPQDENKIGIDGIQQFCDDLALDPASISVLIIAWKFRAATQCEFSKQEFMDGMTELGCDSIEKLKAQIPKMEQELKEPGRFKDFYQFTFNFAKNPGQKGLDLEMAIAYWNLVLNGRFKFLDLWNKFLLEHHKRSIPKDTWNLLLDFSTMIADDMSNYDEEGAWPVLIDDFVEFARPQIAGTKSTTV

Binder: [Phe(2-Cl)]IKL [compound 13 (11 with Cl at the ortho position of the phenyl ring)]
fold decrease in binding affinity (against 11): 3 fold

B2: UBC12 peptide 4 (peptide, UniProt P61081 1-9, looked up)
peptide: MIKLFSLKQ
notes: Terminal groups surmised Ac-...-NH2; source: synthetic peptide
binding result: binds

Binder: [Ala(6-isopropyl-benzothiazol-2-yl)]IKL [compound 27 (26 with the 6-Cl replaced by an isopropyl group)]
Ki: 5 nM

B3: UBC12 peptide 3 (peptide, UniProt P61081 1-10, looked up)
peptide: MIKLFSLKQQ
notes: as for B2
binding result: binds

B4: UBC12 peptide 7 (peptide, UniProt P61081 1-6, looked up)
peptide: MIKLFS
notes: UBC12, N-terminal 6 residues (Met1 to Ser6; Leu7 removed from 6); Terminal groups surmised Ac-...-NH2; source: synthetic peptide
fold loss in binding affinity (against 6): 3 fold

B6: UBC12 peptide 8 (peptide, UniProt P61081 1-5, looked up)
peptide: MIKLF
notes: UBC12, N-terminal 5 residues (Met1 to Phe5; Ser6 deleted from 7); Terminal groups surmised Ac-...-NH2; source: synthetic peptide
binding result: binds

Binder: [Ala(5-Cl-benzothiazol-2-yl)]IKL [compound 25 (24 with 5-Cl on the benzothiazol-2-yl)]
fold less potent than 24: 17 fold

B7: UBC12 seven-residue peptide (6) (peptide, UniProt P61081 1-7, looked up)
peptide: MIKLFSL
notes: UBC12, N-terminal 7 residues (Met1 to Leu7; Lys8 removed from 5); Terminal groups surmised Ac-...-NH2; source: synthetic peptide
fold loss in binding affinity (against 5): 3 fold

Results, then the binder that gave them:

binding result: binds
B1: UBC12 peptide 5 (peptide, UniProt P61081 1-8, looked up)
peptide: MIKLFSLK
notes: UBC12, N-terminal 8 residues (Met1 to Lys8); Terminal groups surmised Ac-...-NH2; source: synthetic peptide

fold more potent than 11: 11 fold
Binder: [2Nal]IKL [compound 23 (11 with the phenyl replaced by naphthalen-2-yl)]

fold more potent than 24: 4 fold
Binder: [Ala(6-Cl-benzothiazol-2-yl)]IKL [compound 26 (24 with 6-Cl on the benzothiazol-2-yl)]

Ki: 354000 nM
Binder: [1Nal]IKL [compound 22 (11 with the phenyl replaced by naphthalen-1-yl)]

binding result: binds
B5: UBC12 peptide 2 (peptide 1 without Lys12) (peptide, UniProt P61081 1-11, looked up)
peptide: MIKLFSLKQQK
notes: UBC12, N-terminal 11 residues (truncation of Lys12 from the 12-residue peptide); Terminal groups surmised Ac-...-NH2; source: synthetic peptide

fold decrease in binding affinity (reference not named: 9 or 11): 6 fold
Binder: [hPhe]IKL [compound 12 (tetrapeptide 9 with Met1 replaced by homophenylalanine)]

Ki: 150 nM
Binder: [Ala(benzothiazol-2-yl)′]IKL [compound 24 (11 with the phenyl replaced by benzothiazol-2-yl)]

Source: article PMC5658359, “A potent small-molecule inhibitor of the DCN1-UBC12 interaction that selectively blocks cullin 3 neddylation” (Nature Communications, 2017)
